Test results published in the supplement of paper PMC10724198.
± gives the standard deviation of the averaged measurements.

tested on: Saccharomyces cerevisiae; assay: protein stability index of tFT-peptide fusion (C-terminal peptide) (PSI (0-1 scale)); higher = more stable (slower turnover); conditions: genetic background: wild type; temperature: 30 C
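Note: PSI is a weighted mean of sequencing reads over stability bins, variants kept only with over 10 reads, mCherry proximal and sfGFP distal, peptide attached via GGGS linker.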

Row | Sequence | protein stability index
1 | RAFGQGMGLAFS | 0.737 ± 0.0082
2 | RAGKEGRVSSSK | 0.6619 ± 0.0057
3 | RAKRPAGTSTRG | 0.604 ± 0.016
4 | RALRAGVGVRAC | 0.662 ± 0.08
5 | RAPPAARIASGL | 0.677 ± 0.026
6 | RARPGKATSAFH | 0.73 ± 0.019
7 | RARPPPQLHLSP | 0.745 ± 0.012
8 | RAYRSTCRCSER | 0.669 ± 0.081
9 | RCFLFSPCWAFS | 0.5889 ± 0.002
10 | RCGLVGILCSSI | 0.5632 ± 0.004
11 | RCGRSVSCLATG | 0.696 ± 0.042
12 | RCGVGGSVSFWW | 0.689 ± 0.05
13 | RCHGRVNLAEGE | 0.7564 ± 0.00055
14 | RCLRYFVWRLGW | 0.709 ± 0.12
15 | RCLSRLSALGTD | 0.624 ± 0.076
16 | RCNCTTTTLRSK | 0.6046 ± 0.0019
17 | RCPDSARRWRVP | 0.7111 ± 0.0045
18 | RCPVFRCITGGL | 0.61 ± 0.031
19 | RCTLFGMDQSSA | 0.642 ± 0.027
20 | RCTRQVHPLTFR | 0.66 ± 0.038
21 | RCVRLSISILRP | 0.586 ± 0.038
22 | RCWVTVIRSVRS | 0.601 ± 0.067
23 | RDELRTSAGKGS | 0.659 ± 0.055

Row | Sequence | protein stability index
24 | RDERDWDGSSWA | 0.708 ± 0.03
25 | RDGRNSKPTYQP | 0.667 ± 0.025
26 | RDLVEQTLHIEY | 0.667 ± 0.013
27 | REEGIEKKEKIR | 0.678 ± 0.03
28 | REGCYVRGGILL | 0.68 ± 0.072
29 | REGRTRGTAAER | 0.679 ± 0.027
30 | REKARNEKRRKT | 0.651 ± 0.0075
31 | REKEKGYLNKKK | 0.743 ± 0.041
32 | RELLYLPPPSDP | 0.821 ± 0.051
33 | REPFCVVGGREG | 0.681 ± 0.04
34 | RERAQEMGIRNE | 0.675 ± 0.031
35 | RERRFFPPSGFS | 0.71 ± 0.018
36 | REWLGCYVFGVR | 0.677 ± 0.022
37 | RFASVLSLPLSV | 0.642 ± 0.13
38 | RFCRPLSHTALA | 0.632 ± 0.028
39 | RFCRSGCWFRWG | 0.607 ± 0.015
40 | RFFAVSLGGLEF | 0.687 ± 0.031
41 | RFGGVWRCRGFV | 0.696 ± 0.031
42 | RFPLPGLISFSS | 0.742 ± 0.056
43 | RFPSLCVPFLFP | 0.678 ± 0.013
44 | RFPSRLLVPPPP | 0.698 ± 0.077
45 | RFRYFSPLSTTS | 0.671 ± 0.027
46 | RFSKGKPVSAGG | 0.632 ± 0.033

Row | Sequence | protein stability index
47 | RFTCYLCLKGLL | 0.681 ± 0.052
48 | RFVRGEFLWGVC | 0.663 ± 0.044
49 | RFVTLLSDFFLL | 0.681 ± 0.063
50 | RFWIVVRRQTRT | 0.6447 ± 0.00089
51 | RGACGWVDWWGL | 0.856 ± 0.13
52 | RGAGYQLFGPPR | 0.698 ± 0.037
53 | RGARRGAPVCGW | 0.71 ± 0.0075
54 | RGASKYDGDSRR | 0.668 ± 0.016
55 | RGATAKGQRRVR | 0.686 ± 0.046
56 | RGCGAIYRGSCG | 0.707 ± 0.021
57 | RGCGGGTGDGRG | 0.697 ± 0.045
58 | RGELSGVRVSVR | 0.645 ± 0.043
59 | RGFGFAYVSEHI | 0.708 ± 0.075
60 | RGFGGVLGRVFL | 0.725 ± 0.017
61 | RGFGSLSKPMCH | 0.711 ± 0.012
62 | RGFLHVRCRDTC | 0.7049 ± 0.0011
63 | RGGAGSWDWEAG | 0.707 ± 0.028
64 | RGGGGAKGEGVR | 0.707 ± 0.048
65 | RGGGGGSAVEGG | 0.635 ± 0.095
66 | RGGGGGVWGHVV | 0.58 ± 0.02
67 | RGGGVVRGCSGG | 0.679 ± 0.014
68 | RGGRGLECAFYI | 0.7903 ± 0.001
69 | RGGVGGSVSFWW | 0.707 ± 0.072

Row | Sequence | protein stability index
70 | RGGVGWGVFRVS | 0.679 ± 0.064
71 | RGGWGGGGAAGS | 0.649 ± 0.053
72 | RGIEQRHFPKGA | 0.7 ± 0.011
73 | RGKREEQVRGGD | 0.622 ± 0.035
74 | RGKVVRLLLERM | 0.72 ± 0.067
75 | RGLVIWRVGGMK | 0.66337 ± 0.00065
76 | RGMPMARVRSAG | 0.693 ± 0.054
77 | RGNAMSFVCVGE | 0.658 ± 0.096
78 | RGNPLLWHSSPR | 0.657 ± 0.051
79 | RGPLNPNWPPTD | 0.7 ± 0.037
80 | RGPPIPTLRYQH | 0.746 ± 0.079
81 | RGPTGEDLCSAM | 0.696 ± 0.032
82 | RGPVSQNPEINF | 0.732 ± 0.02
83 | RGRGGDERSVRG | 0.644 ± 0.013
84 | RGRGKAGGETTV | 0.686 ± 0.035
85 | RGRVLDTRDWGP | 0.666 ± 0.059
86 | RGSCPFQSWRCS | 0.59 ± 0.038
87 | RGSGEVVLFGVG | 0.671 ± 0.057
88 | RGSRVDLKLSKK | 0.678 ± 0.019
89 | RGSWRGLADSGV | 0.676 ± 0.08
90 | RGTYACGMGGVG | 0.654 ± 0.074
91 | RGVAGSTLGLRI | 0.566 ± 0.069
92 | RGVGGREGAAPV | 0.691 ± 0.0093

Row | Sequence | protein stability index
93 | RGVIKNKIKRLK | 0.768 ± 0.078
94 | RGVRGLWGGKRG | 0.626 ± 0.015
95 | RGWDEHRVGSEY | 0.671 ± 0.095
96 | RGWKGGLSLGEI | 0.586 ± 0.021
97 | RGWLSAWDENGK | 0.704 ± 0.019
98 | RHGTRHKLLGTL | 0.659 ± 0.016
99 | RHIDSRDPTDSP | 0.651 ± 0.081
100 | RHLFGTGIMPER | 0.683 ± 0.12
101 | RHPLPHNLSPYP | 0.78 ± 0.0065
102 | RHPSAPRPVPLM | 0.695 ± 0.11
103 | RHTYSPRAPVPD | 0.707 ± 0.025
104 | RIEKYKKKKETK | 0.712 ± 0.084
105 | RIIHIHKLFLRR | 0.677 ± 0.071
106 | RIKHKNRNKKKN | 0.791 ± 0.033
107 | RIKQKEEKRNRY | 0.779 ± 0.01
108 | RILSFVSCYSLL | 0.506 ± 0.0035
109 | RILVFCPSSFGL | 0.64 ± 0.018
110 | RINGPLHRLSVA | 0.657 ± 0.015
111 | RIQYKKKNRKGI | 0.628 ± 0.037
112 | RITMNMHSLIIP | 0.711 ± 0.032
113 | RITTVPNSNPGN | 0.689 ± 0.08
114 | RITVPIGYHSVS | 0.6891 ± 0.0009
115 | RKAEWIKQYDMH | 0.479 ± 0.072

Row | Sequence | protein stability index
116 | RKEGRGEEPEKG | 0.65 ± 0.049
117 | RKGNHAHEPSCI | 0.686 ± 0.0034
118 | RKIERKHIKEFS | 0.664 ± 0.0089
119 | RKIKKRITREKM | 0.617 ± 0.082
120 | RKKKKKEKKKVE | 0.741 ± 0.037
121 | RKKKTRGKEKRR | 0.683 ± 0.097
122 | RKKNVYGKKIKI | 0.656 ± 0.083
123 | RKKRGKNEERQD | 0.707 ± 0.056
124 | RKLKQGIVSKKK | 0.66 ± 0.052
125 | RKLNRKEKLQLT | 0.646 ± 0.051
126 | RKNKLKQNKKYR | 0.718 ± 0.012
127 | RKNYRISYKLLD | 0.715 ± 0.02
128 | RKRSRQLNRQLK | 0.603 ± 0.0074
129 | RKTKKKKENKRR | 0.7131 ± 0.0043
130 | RKTSIKNKKKKI | 0.693 ± 0.059
131 | RKVTSIESGVMT | 0.655 ± 0.038
132 | RKVYHSTRNTRK | 0.702 ± 0.11
133 | RLCFAPRVLPTH | 0.604 ± 0.041
134 | RLDMKLAIDISR | 0.7631 ± 0.0011
135 | RLDRARTPPAST | 0.779 ± 0.05
136 | RLEGNRGPWRQD | 0.786 ± 0.1
137 | RLFCLRSVSLVS | 0.572 ± 0.015
138 | RLIHRLLGLFPS | 0.69 ± 0.06

Row | Sequence | protein stability index
139 | RLILLPLFLSDS | 0.729 ± 0.092
140 | RLITGTKLFNGM | 0.765 ± 0.045
141 | RLKLKSECYSPL | 0.667 ± 0.034
142 | RLLLRNAASSSS | 0.691 ± 0.042
143 | RLLPPSPPPPPS | 0.667 ± 0.035
144 | RLPHPHPVRSLP | 0.7 ± 0.022
145 | RLPSSPPSATWL | 0.6784 ± 0.0019
146 | RLPSSSFSPHRA | 0.688 ± 0.0069
147 | RLRKEKGKKIQY | 0.697 ± 0.073
148 | RLRPLSPPTLCD | 0.665 ± 0.044
149 | RLRRLYSLRTYL | 0.543 ± 0.033
150 | RLTSPPYSFFLH | 0.644 ± 0.019
151 | RLVHSRPPPFAS | 0.794 ± 0.13
152 | RMRRAHCQQSGG | 0.6537 ± 0.0037
153 | RNEDYQKKRKGK | 0.701 ± 0.022
154 | RNIRGDYKGRRL | 0.6455 ± 0.0019
155 | RNKHREEIERQT | 0.672 ± 0.031
156 | RNKKDIKIQIKR | 0.68 ± 0.049
157 | RNKKIKKKKGRN | 0.701 ± 0.069
158 | RNKRPDQRERKQ | 0.692 ± 0.17
159 | RNLHVSMGKCSP | 0.722 ± 0.21
160 | RNLRCDIVNVYP | 0.759 ± 0.015
